This passage reports ID50 (virus neutralization, ctrl mAb; run with wk 6 sera) and ID50 (virus neutralization, ctrl mAb; run with wk 18 sera) results from patent US20240287144A1.

Where only a bound is given, the exact number is not on record here.

Holding throughout (test): cell-based or functional assay
Common to all, as to design: unit not given beside the values

Test [1] deals with HIV-1 Env of virus 3301.V1.C24.SG3 (Clade AC) (HIV-1 strain 3301.V1.C24).
Test [2] has as its target HIV-1 Env of virus 25925-2.22.SG3 (Clade C) (HIV-1 strain 25925-2.22).
For test [3], the target named is HIV-1 Env of virus 001428-2.42.SG3 (Clade C) (HIV-1 strain 001428-2.42).
Test [4] concerns the target HIV-1 Env of virus DJ263.8.SG3 (Clade AG) (HIV-1 strain DJ263.8).
Test [5] deals with HIV-1 Env of virus BG505.W6M.C2.T332N.SG3 (Clade A) (HIV-1 strain BG505).
Test [6] addresses HIV-1 Env of virus HxB2.DG.SG3 (Clade B) (HIV-1 strain HxB2).
Test [7] addresses HIV-1 Env of virus MW965.26.SG3 (Clade C) (HIV-1 strain MW965.26).
Test [8] addresses HIV-1 Env of virus ZM106.9.SG3 (Clade C) (HIV-1 strain ZM106.9).
Test [9] has as its target HIV-1 Env of virus CNE58.SG3 (Clade C) (HIV-1 strain CNE58).
For test [10], the target named is HIV-1 Env of virus 242-14.SG3 (Clade AG) (HIV-1 strain 242-14).

On to VRC01 (antibody), for which the ID50 (virus neutralization, ctrl mAb; run with wk 6 sera) was 0.305 in [1]; 2.91 in [2]; under 0.05 in test [3]; 0.095 in test [4]; 0.097 in test [5]; 0.07 in test [6]. The ID50 (virus neutralization, ctrl mAb; run with wk 6 sera) in test [7] is 0.025; in test [8], 0.472; in test [9], 0.398; in test [10], over 50. Also, the ID50 (virus neutralization, ctrl mAb; run with wk 18 sera) in test [1] is 0.358; in test [2], 1.07; in test [3], under 0.05; in test [4], 0.127; in [5], 0.068; in [6], under 0.05. Also, the ID50 (virus neutralization, ctrl mAb; run with wk 18 sera) in test [7] was 0.041; in test [8], 0.486; in test [9], 0.435; in test [10] it was over 50.
